From the DeepSol protein solubility set

assay: soluble on expression in E. coli; label from the status in PepcDB or PDB records

Sequence | soluble on expression in E. coli
MAHHHHHHMSAEGLSRFFTENLTEEGRSDLNQWEAKTLEFAQRVNRDGCEGVAFITSGGTAVPLEVHAVRFVTNFSSGGRGAVLVEELLARGWACILLRSKTSQLPFRRLVDNMTTEQFFAELNAPQKSCDVSAAIEAYTKYKSRFLEIPYYTVVEYLYLFSLLTGTLSHRAECLRQTPMMLLAAAAVSDYYIPESRLSHHKMSGGDGLTIQFNNVPKILDLISEEWHGSSRAAPRYLITFKLETEEEQLKAKALRNLGLYRCDAVVANMLQNYRERVLVFWNGEEQNPTLLHRSPNGSVESLMIDHVLQRIKNHAKGCGMQYKLEGRRR | soluble
SASAVFEGTSLVNMFVRGCWVNGIRRLIVSRRGDEEEFFEIRTEWSDRSVLYLHRSFADLGRLCKRLRDAFPEDRSELARTPLRQGLLAIKGAHDIETRLNEVEKLLETVISMPCKYSRSEVVLTFFERSPLDQVLKNDNVHKIQPSFQSPVKISEAKEGTGALRTGVVDGCEPPGGCWELSVGLLEEHQVFLTAERIFSPRKAFLRNHEVQWILFGKHRDHSH | soluble
AIALVGPAPTTDGSAENTLNEKRLVHGSIAFWLGPRAPQTKTHRWTVYVRGARDPLEDLSLYIQKVEFVLHESFADPVRVVKEPPFCLTEHGWGEFEVIIRLFPISDPDKPVEMYHPLRLFPSVGQELTEKPVVSEHLDVLVFSQPAPEVERALHRSDVARMPSDCWGDLMPLFGGDLHQVEEEDLRKVQQARERVRQQIQATRLQYEALTAELARARTHALHRELS | soluble
MAVKMKYWTDEVGGERGSLKVELKPFGYRIIPLTQWKTLIAMDDVEVKKGEPEIIEVRPFTIPGGTMVGPLHIMRHALGTVLDVVECGIPTRVEDEKCIQRVVFLPVDDGVVREGDIVGVLKVFFIKTGLISRLFNLKPTKVELREEIVEANITWRDDGNIYREKISTKVFGYTRTHVGVWEPLVADEDVGVRAGDVLRVKIRNVELPPNTVVVPLSISRNPYGVVVDVVQLGKPRRVEEPKNIEQAVFLAVDDGEIKRGDLLGVINVYYVGLKKLEPLIATKEPQDFTLVYRKEEKIIRKKVHLPPFGYHRSPVARWEVVVAAEDKELTKNKPVRVKIKKIKIPANTIVYPMEIMRHSDGVLIDLVSDLPWRVEEGGKVDEAIFLPLFDGKIEKDDLLGVINLYQVELSPVEKIREMYNRFVKLSEEELMKYVEGLQ | soluble
MSQATQQLDETRLALADALQAGNWDAIGELDQVCQVKIDQAMHDDERDEQALRVSLEQLLSLYNDMLSACRQQREAIGAELTGLQRASKGAKVYQMFG | not soluble
SSSPPEGKLETKAGHPPAVKAGGMRIVQKHPHTGDGKEERDKDDQEWESTSPPKPTVFISGVIARGDKDFPPAAAQVAHQKPHASMDKHVSPRTQHIQQPRK | soluble
MTDNNTALKKAGLKVTLPRLKILEVLQEPDNHHVSAEDLYKRLIDMGEEIGLATVYRVLNQFDDAGIVTRHNFEGGKSVFELTQQHHHDHLICLDCGKVIEFSDDSIEARQREIAAKHGIRLTNHSLYLYGHCAEGDCREDEHAHEGK | soluble
MESKQPEDIHQDCELKQDELISKLQHSQQNFDNIKKILANFEKENENLADENEILKTRIASLEKDVKQEKNATKMAKSLNEETINELTLSEDLIESLKKQFQASKIELKEEILSKNKVEKDYSNDKRYFLEREQYLLITMESMESGKLEHEQQTEIMNKDVEELKIRVKELEATDLSEKNIELERQVGKLTAQLQDFESSRGYEQELILSQLEVQKRKLDKQLIDLQSKLERNPELVEFDKLHEELQTERMNMPVQVCYVHVSFIHKDIENLIYRKMNNNK | not soluble
MNANLNMDVIRSALLAGEVDDAYKVIFNARKKLELYKSTTGDSRYDPYYEFISILDDVVRGRRSWKDLKAYIDGNMDALSKFIDPDFLRSFPYYLFFSIDRYNVRFPYFDGKRCDDR | not soluble
MSLKTYDAFPEPIGGYTVGRTQMDFEYTASDHSKRELTAFVYYPSDSSEGKTTSTYMFPEVYEMFNEQPLVTALKDVFSIDIKTQCYDDLALSGKEKRYPVLFYVCGGGGSPEWGTVICTDLASMGYVVVSIGHQNSTMYKRKDGRLFNVSKDFSDVIMAFSEDPEMLALAGKMEMRPDDETAIEMCHNVLTLPILAKLTEYSELQAEDVRYVADYLYKLDSGELNSIFKGRLLLDIGMGIVGHSYGGPTTAIVCRDDDRFACGIGLDSGAFGLLDSDLKKPFLLLFCEPNYNMNAIIGANNSMETYYFSVDRVAHLDYCDIVFTSVNEELRGERDAMEMRNLVTDYTKNFFDHYILLKAASVESLAYDGVDLIKKTSNKEGHHHHHH | soluble
MSLVLGNAWLVLADRVIEHGWVAIADGVIAEVGEGDAPNGAKDMHGDLVMPGLVELHTDHLEAHYTPRPKVQWNPVAAVVSYDGQLATCGITTVLDSLRVWREEGAEEVDGQAIVLAGAISTARDAQLLRADHFLHLRCEIPMPNVVAEAKELIDRPDIRLMSLMDHTPGQRQFRDEEKLRDYYRGKGAGMTDAELDVMFARRVYCKENYADANMRAIVELAHRYEIPLASHDDTTPENVADAIRDRVAVAEFPTTLEAARELHQAGIDILMGAPNVVRGGSHSGNIAAIDLAHEGLLDILSSDYIPSSLLIAALQLPMRAPGIDLAAAIRTVTKAPAEAVGLNDRGEISKGKRADLIRVHVAHDVPAVRSVWREGQRVAEGHHHHHH | soluble
MVVKIKGKVFVFGDNVNTDEIIPARYLNTSDPQELAKYCMEDARPGFGRRDDIKGSIIVAGENFGCGSSREHAPVAIKAAGISCVIAKSFARIFFRNAINIGLPIVELKEADEFEEGDIAEVDLENGVVRNLTKGKEYRIRPYPEFLMKIMEAGGWLEYCLKEVGE | soluble
MGSDKIHHHHHHADDDTPVVTLGTSLTDSQRNGTLKTLTAPLNGGNYQTITVTGSDLVKYLNPSGDNFTTSSGVWSSAMIQKTSSGSGINVKILDYNGKNNITTITANQYKNAALTAGITDANIYVTSAVPIDGSGALAGVYAAYAKNGNALNQKQVNAAQDEMNTLSGITQDNKNKEGYSDAQLNNAVAGAKSEMAKQGQNISDSQIRDIVNNQININHLGNTINNNQKNQIVNLLIEIRDSGALKNGSFKSQASKLSSQIQNGAKNIFNKFNTQENRSWLQQLWDNVVNFFSHIFG | not soluble
MLRRQARERREYLYRKAQELQDSQLQQKRQIIKQALAQGKPLPKELAEDESLQKDFRYDQSLKESEEADDLQVDDEYAATSGIMDPRIIVTTSRDPSTRLSQFAKEIKLLFPNAVRLNRGNYVMPNLVDACKKSGTTDLVVLHEHRGVPTSLTISHFPHGPTAQFSLHNVVMRHDIINAGNQSEVNPHLIFDNFTTALGKRVVCILKHLFNAGPKKDSERVITFANRGDFISVRQHVYVRTREGVEIAEVGPRFEMRLFELRLGTLENKDADVEWQLRRFIRTANKKDYL | soluble
MNELVFLHSQYIEEEPYTTDEVIAKYSQIKRESVSKLIKKYQKDLEEFGKVGFEIRAMESGQKAKFYQLNEEQATLLITYLDNTEPVRRFKKALVRQFYDMKNGLYARRMERQKEKSVRKSMTDVIKELGLSPHYYKHYTDLVYKTALGFNAKQLREAREVSKKSTILDFLTSEEIEAVNKREQQVATLLTLKMDYDTIKSILNGQGVLYQTTLKMPVATN | not soluble
MGSDKIHHHHHHMSKVVKFGGSSVANSEQFKKVKQIILADPDRKYVVTSACGKSGQEDHKVTDLLYLCAAHITYDVSYESIFQSIVDKYMEIKRSLGLKIDLAGEFAKIRQNMAQNLNLDYLVSRGEYLTGLCLAEYLDADFRDASQVIRFHYDGSIDLDKSQELLKAQVDPGRRVVIPGFYGSLPNGVIKVMSRGGSDITGSIVANAFDVDVYENWTDVSGFYVADPRIIKDPVQIPRVTYSELRQMSYMGANVLHDDAVFPVRQKNIPINVRNTNHPENPGTMIMNDCSELDAQERPHVITGITGKQDFTVITMVKSHVSAEAGFLRKVLAVFEKFQISIESVPVTVDTFSIVVQTKKIERYLYEIVAELQQDLHLDDIQVESQQAMLAVVGRAMRQMPGMSGKILSTLGDQQINIRTINQACDEQSIVIGVNNQDLVPAIKAIYQQFISEERVER | not soluble
MGSDKIHHHHHHMQPEIRKIVTYDEEVLIEGFRKADAPWRMFAIACVVRNPWAGRFVEDLKPEIMAYGPVLGELMTERMITLAGSGDAIEAYGKAAIVGVDGEVEHASGLIHTLRFGNFFREAVGANSYLAFTNTRGPANAPIMVPLMDKNDAGRRSHYLTIQFAIPDAPRADEIVVLLGAATSGRPHHRIGDRYQDLKDLGHDLDNPAAV | not soluble
MLTITQALVDQIVAHARQDHPDEACGVVAGPEGSGRPERFIPMLNAARSPTFYEFDSGDLLKLYREMDDRDEEPVIIYHSHTATEAYPSRTDISYANEPGAHYVLVSTADADDAGPFQFRSFQIVAGEVTEEEVKVVEAYLEHHHHHH | soluble
SSGNHIFKGRAAGIAVNENGKGLITENVIRENQWGGVDIRRGGIPVLRSNLICFGYSDGVVVGDEGKGLIEGNTIYANKGCGVWMMSSSLPHVTSNHVSYNGLYGVAVFSQKDGSSELPRGHRAQENFSEDGDAILWETELEKEDDPLRRPITIALVESNSINHNGASGLYVQSSEALHVITNVIHANGDRGITVAQSSQPTRVANNSISCNRQSGVKVEAQCKVELRGNGIYDNRGHGIITKGDSTIVIENDIIGNRGSGLQLLPRSDTKVIKNRIHSFRAYGIAVRGRAKALVQENIIFQGKTSKTIFQQISNNRECIMQNNKFLVFKKKSDTWR | soluble
MQLRYAFRVYPDAGQRLALARAFGCARVVFNDVVRAREDARKAGRPFQTAAGLSRKLITEAKRTAERSWLGEVSAVVLQQSLRDAETAYRNFFASLKGTRKGPRVGPPRYKSRKDARQSIRFTANARWSITDSGRLNLPKIGAVKVKWSRTLPTIPTSVTVIKDAAGRYFASFVVDTDPAADRVRMPDADRTVGIDLGLTHFAVLSDGTKIGSPRFLRRAEKKLKKAQQELSRKQMGSKNRDRARLKVARAHAKVADARREFHHQLSTRLISENQGIAVEDLSVAGLARTRLAKSVHDAGWSSFVGMLKYKAERYGRTLVVIGRFEPTSQTCSTCGVKDGPKPLQVREWTCTACGTVHDRDHNAAINVKQAAGLAASACGAPVRPGAIPAQREETGSHGLPTEPRAALEHHHHHH | not soluble
SAAQKINEGLEHLAKAEKYLKTGFLKWKPDYDSAASEYGKAAVAFKNAKQFEQAKDACLREAVAHENNRALFHAAKAYEQAGMMLKEMQKLPEAVQLIEKASMMYLENGTPDTAAMALERAGKLIENVDPEKAVQLYQQTANVFENDERLRQAVELLGKASRLLVRGRRFDEAALSIQKEKNIYKEIENYPTCYKKTIAQVLVHLHRNDYVAAERCVRESYSIPGFNGSEDCAALEQLLEGYDQQDQDQVSDVCNSPLFKYMDNDYAKLGLSLVVPGGGIKKKSPATPQAKPDGVTATAADEEEDEYSGGLC | soluble
MNYIRKLYKQDYRGFESLPHRRENVIEKYSVKSQRPLLKKYLVEDFGGMCIYCGWNCKRYDAASFHIEHIKSQIDNESLIDDYSNLALSCPICNTTKNKKALPSDLDPLGEDYKNLFYRNNRGAIVTNNDIEDRKKALSQQYIKILGLSKELYKLDYVQTSLNIIKRRLRQSDKINLELINSITEILDFIDDNYTRQSNLTLLEHHHHHH | not soluble
MDKRIENAMNELINTEIWSTGLYLSLQVYFEDERLPILSSWLNSQAQDNMNKVYQMMNRICHDGGCVVINEMKRDTHEWTTPLNALNELLEHEQYISRQVNTFLILCWNVSMSFHSFISGLYADRIYVSTAFMELLRILAKENERKLPYF | not soluble
